Results published in PMC2854129, “Spadin, a Sortilin-Derived Peptide, Targeting Rodent TREK-1 Channels: A New Concept in the Antidepressant Drug Design” (PLoS Biology, 2010).
Where no end group is shown, it is not given here. The star is where a group is joined. 125I = radioactive iodine label on Tyr, [125I]*

Key:
TREK-1 channel = assay: Whole-cell patch-clamp, hippocampal CA3 pyramidal neurons in brain slices, wild-type mice; assay type: cell-based, mouse; settings: 12 out of 28 recorded neurons; K+ blockers; aa 10 µM; mean ± SEM, n = 12
TREK-1 [1] = assay: Whole-cell patch-clamp, cultured hippocampal pyramidal neurons; assay type: cell-based, mouse; settings: 10 µM aa, K+ blockers, 7 out of 70 recorded neurons, at −50 mV
Experimental: Cortical neurons were prepared from 14 old mouse embryos, whereas hippocampal neurons were prepared from newborn mice. Briefly, dissected brain areas were dissociated and neurons were plated on polylysine-treated 35 or 60 mm dishes and maintained in culture in Neurobasal medium supplemented with B27, Glutamax, and antibiotics for 2 to 3 wk before to be used for electrophysiological or biochemical experiments.
Supplementary file pbio.1000355.s004.tif: Figure S4 Effects of spadin on cultured pyramidal neurons from hippocampus. (A) Cultured pyramidal neuron from hippocampus, with on top, the patch-clamp pipette. Neurons were chosen according to their morphology. (B) Current recorded in response to ramps of potential obtained in the various conditions indicated (aa, arachidonic acid: 10 µM; Spadin: 1 µM; Fluoxetine: 20 µM). Neurons were recorded in the whole-cell configuration of the patch-clamp technique. In voltage-clamp, ramps of potential from −90 mV to 70 mV were applied every 10 s. The % variation of the current amplitude was always measured at −50 mV. The currents were recorded in response to such ramps in control conditions and in the presence of a cocktail of potassium blockers suitable to isolate the TREK currents (10 mM tetraethyl ammonium (TEA), 3 mM 4-aminopyridine (4-AP), 50 nM charybdotoxin, 10 µM glibenclamide, 100 nM apamin). […] The blocks were reversible. (C) Time course of spadin and fluoxetine effects. Applications are indicated by the horizontal bars. (2.03 MB TIF) Click here for additional data file.

TREK-1 [2] = biological target: T1, TREK-1 (Mus musculus, UniProt P97438); assay: Whole-cell patch-clamp, TREK-1 transfected COS-7 cells; assay type: cell-based; design: GFP; expressed in transfected cells; host or cells: COS-7 cells, DEAE-dextran transfection; settings: 10 µM aa
T1 sequence (P97438 1-426): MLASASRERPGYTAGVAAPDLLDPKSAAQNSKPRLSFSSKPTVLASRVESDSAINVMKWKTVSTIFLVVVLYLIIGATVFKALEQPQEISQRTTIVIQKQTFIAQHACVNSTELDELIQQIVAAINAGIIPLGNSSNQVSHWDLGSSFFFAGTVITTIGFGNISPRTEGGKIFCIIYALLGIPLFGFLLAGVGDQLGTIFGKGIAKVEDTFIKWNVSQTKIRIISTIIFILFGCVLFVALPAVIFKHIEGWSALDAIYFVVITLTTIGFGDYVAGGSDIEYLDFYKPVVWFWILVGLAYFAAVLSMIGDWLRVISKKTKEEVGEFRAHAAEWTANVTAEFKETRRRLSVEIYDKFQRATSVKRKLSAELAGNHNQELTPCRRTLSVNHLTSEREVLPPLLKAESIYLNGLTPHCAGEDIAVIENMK
Experimental: All electrophysiological experiments were done on COS-7 cells seeded at a density of 20,000 cells/35-mm dish 24 h before transfection. Cells were transfected by the classical DEAE-dextran method with TREK-1-GFP plasmids (0.1 µg/µL). Cells were visualized 48–72 h after transfection using fluorescence.
The whole-cell patch-clamp technique was used to evaluate TREK-1 potassium channel current by using a RK 400 patch-clamp amplifier (Axon Instruments, USA), as previously described. Currents were lowpass filtered at 3 kHz, digitized at 10 kHz using a 12-bit analog-to-digital converter. […] The bath solution contained (in mM) 150 NaCl, 5 KCl, 3 MgCl2, 1 CaCl2, and 10 HEPES, adjusted to pH 7.4 with NaOH; the patch pipette solution contained (in mM) 155 KCl, 3 MgCl2, 5 EGTA, and 10 HEPES, adjusted to pH 7.2 with KOH. Cells were clamped at −80 mV and voltage changes were either applied by ramp (from −100 to 50 mV, 1 s in duration) or by step (from −100 to 40 mV, 1.5 s in duration). Cells were continuously superfused with a microperfusion system. The pipette capacitance was not subtracted from total membrane capacitance and there was no leak subtraction. […]
Pclamp software was used to analyze currents recorded in the whole-cell mode measured at 0 mV. Results are expressed as means ± SD. […]

TREK-1 [3] = biological target: T1, TREK-1; assay: Competition binding, 125I-spadin, TREK-1 transfected COS-7 cell homogenates; design: expressed in transfected cells; host or cells: COS-7 cells, DEAE-dextran transfection; settings: 0.2 nM 125I-spadin; TREK-1 transfected COS-7 homogenates; Tris-HCl pH 7.4, 0.1% BSA; mean of duplicates from 2 to 5 independent experiments
Experimental: For competition experiments, homogenates from TREK-1 transfected COS-7 or C13NJ cells were incubated with 0.2 nM ^125I-spadin or ^125I-NT (200,000 cpm in 250 µl) iodinated and purified as previously described. Incubations were performed in 50 mM Tris-HCl, pH 7.4 containing 0.1% BSA in the presence of increasing concentrations of non-radioactive spadin or NT (10^−10 to 10^−5M). Incubations were terminated by addition of 2 ml of ice-cold binding buffer followed by filtration through cellulose acetate filters (Sartorius, Göttingen, Germany) and washing twice with 2 ml of ice-cold buffer. Radioactivity on filters was counted with a gamma-counter.

[4] = tested on: non-transfected COS-7 cells; assay: 125I-spadin binding to non-transfected COS-7 cells
TREK-1 [5] = biological target: T1, TREK-1; assay: Association kinetics and internalization of 125I-spadin on whole COS-7 cells expressing TREK-1; assay type: cell-based; design: expressed in transfected cells; host or cells: COS-7 cells, DEAE-dextran transfection; settings: 37°C; for intracellular (acid-NaCl wash resistant) fraction of total bound 125I-spadin: 30 min, acid-NaCl wash 2 min
Experimental: Cells, grown on 12 mm multiwell-dishes, were incubated with 0.2 nM ^125I-spadin for various times at 37°C in an Earle's Tris-Hepes buffer (cell binding buffer). Incubations were terminated by washing cells twice with the binding buffer or with the same buffer containing 0.5 M NaCl, pH 4, for 2 min to remove non-sequestrated radioactivity (acid-NaCl wash). Cells were harvested with 1 ml of 0.1 N NaOH and counted in a gamma-counter. Non-specific binding was determined in the presence of 10 µM unlabeled spadin.

[6] = biological target: TREK-1 channel (KCNK2), transfected in COS-7 cells (mouse) (UniProt P97438)
NTSR3/Sortilin = NTSR3/Sortilin (UniProt Q99523); settings: cited from earlier work
Chain of NTSR3/Sortilin (Q99523 78-755): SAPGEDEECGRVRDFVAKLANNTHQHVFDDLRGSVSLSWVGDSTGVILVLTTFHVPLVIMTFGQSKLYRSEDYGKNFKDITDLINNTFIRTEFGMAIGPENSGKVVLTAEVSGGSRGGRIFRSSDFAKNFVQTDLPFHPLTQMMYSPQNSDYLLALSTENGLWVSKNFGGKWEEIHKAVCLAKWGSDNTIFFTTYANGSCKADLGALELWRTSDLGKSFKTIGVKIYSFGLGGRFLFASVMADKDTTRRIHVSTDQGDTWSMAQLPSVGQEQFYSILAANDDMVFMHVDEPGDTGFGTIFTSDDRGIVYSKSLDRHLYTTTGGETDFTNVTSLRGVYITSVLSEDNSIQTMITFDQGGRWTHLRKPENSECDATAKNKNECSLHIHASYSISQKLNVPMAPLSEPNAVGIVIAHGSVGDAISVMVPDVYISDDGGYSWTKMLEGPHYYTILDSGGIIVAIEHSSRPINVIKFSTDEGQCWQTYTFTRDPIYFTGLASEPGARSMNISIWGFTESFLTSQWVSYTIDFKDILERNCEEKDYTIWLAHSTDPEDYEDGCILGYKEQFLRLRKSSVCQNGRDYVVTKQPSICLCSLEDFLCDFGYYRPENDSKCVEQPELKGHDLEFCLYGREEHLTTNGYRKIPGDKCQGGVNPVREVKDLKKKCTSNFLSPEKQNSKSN

TREK-1 [7] = biological target: T2, TREK-1 (Mus musculus, UniProt P97438); assay: radioligand binding
T2 chain: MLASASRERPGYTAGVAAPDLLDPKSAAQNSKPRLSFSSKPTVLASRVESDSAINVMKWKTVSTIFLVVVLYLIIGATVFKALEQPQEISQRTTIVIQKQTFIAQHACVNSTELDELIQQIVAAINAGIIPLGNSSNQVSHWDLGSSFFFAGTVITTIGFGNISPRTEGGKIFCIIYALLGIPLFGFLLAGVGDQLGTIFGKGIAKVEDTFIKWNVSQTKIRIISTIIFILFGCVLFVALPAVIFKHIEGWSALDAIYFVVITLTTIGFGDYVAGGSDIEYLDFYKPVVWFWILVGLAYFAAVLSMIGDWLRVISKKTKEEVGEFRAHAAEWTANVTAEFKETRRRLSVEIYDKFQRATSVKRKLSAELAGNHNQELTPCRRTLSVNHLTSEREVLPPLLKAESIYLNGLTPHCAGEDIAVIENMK

TREK-1 [8] = biological target: T2, TREK-1; assay: radioligand competition

CCCCC/C=C\C/C=C\C/C=C\C/C=C\CCCC(=O)O [arachidonic acid]
increase in amplitude of remaining current by arachidonic acid (TREK-1 channel): 23.3%±4.8% | increase of remaining current by arachidonic acid (TREK-1 [1]): about 50% | activation of TREK-1 basal channel activity (TREK-1 [2]; as previously described [21]): strongly and reversibly activated

QDRLDAPPPPAAPLPR [Gln1-Arg16, N-terminal fragment of the full length propeptide]
affinity for TREK-1 (TREK-1 [3]): 1 µM | effect on aa-induced current increase (TREK-1 [2]; after 90 s of application, Figure S2): unable to inhibit the current increase

^125I-spadin: monoiodinated spadin (on Tyr0), HPLC purified (Y(125I)APLPRWSGPIGVSWGLR)
125I-spadin binding [4]: totally devoid of ^125I-Spadin binding | time to plateau of cell-associated radioactivity (TREK-1 [5]; 0.2 nM 125I-spadin, whole COS-7 cells expressing TREK-1): ≤ 30 min | intracellular (acid-NaCl wash resistant) fraction of total bound 125I-spadin (TREK-1 [5]): 80% | intracellular (acid-NaCl wash resistant) fraction of total bound 125I-spadin (TREK-1 [5]; listed as 125I-labelled spadin): about 80%

full length propeptide of NTSR3/Sortilin (Gln1-Arg44)
block of the arachidonic acid-stimulated TREK-1 current at 0 mV, whole-cell patch clamp, TREK-1 transfected COS-7 cells, 500 nM propeptide [6]: 41%

sortilin propeptide 1-44 (from UniProt Q99523)
Kd (NTSR3/Sortilin): 5 nM

B1: spadin (peptide)
chain: APLPRWSGPIGVSWGLR
Kd (TREK-1 [7]): ~10 nM

B2: propeptide N-terminal fragment Gln1-Arg16 1-16 (peptide)
chain: QDRLDAPPPPAAPLPR
Kd (TREK-1 [8]): 1000 nM
